The target of this data set is Cas9 (His-Cas9) (Streptococcus pyogenes) (UniProt Q99ZW2). Briefly: SPR. To be noted: Cas9 without guide; 20 mM Tris pH 8.0, 150 mM NaCl, 1 mM MgCl2.
Sequence of Cas9 (His-Cas9) (Streptococcus pyogenes) (Q99ZW2 whole entry): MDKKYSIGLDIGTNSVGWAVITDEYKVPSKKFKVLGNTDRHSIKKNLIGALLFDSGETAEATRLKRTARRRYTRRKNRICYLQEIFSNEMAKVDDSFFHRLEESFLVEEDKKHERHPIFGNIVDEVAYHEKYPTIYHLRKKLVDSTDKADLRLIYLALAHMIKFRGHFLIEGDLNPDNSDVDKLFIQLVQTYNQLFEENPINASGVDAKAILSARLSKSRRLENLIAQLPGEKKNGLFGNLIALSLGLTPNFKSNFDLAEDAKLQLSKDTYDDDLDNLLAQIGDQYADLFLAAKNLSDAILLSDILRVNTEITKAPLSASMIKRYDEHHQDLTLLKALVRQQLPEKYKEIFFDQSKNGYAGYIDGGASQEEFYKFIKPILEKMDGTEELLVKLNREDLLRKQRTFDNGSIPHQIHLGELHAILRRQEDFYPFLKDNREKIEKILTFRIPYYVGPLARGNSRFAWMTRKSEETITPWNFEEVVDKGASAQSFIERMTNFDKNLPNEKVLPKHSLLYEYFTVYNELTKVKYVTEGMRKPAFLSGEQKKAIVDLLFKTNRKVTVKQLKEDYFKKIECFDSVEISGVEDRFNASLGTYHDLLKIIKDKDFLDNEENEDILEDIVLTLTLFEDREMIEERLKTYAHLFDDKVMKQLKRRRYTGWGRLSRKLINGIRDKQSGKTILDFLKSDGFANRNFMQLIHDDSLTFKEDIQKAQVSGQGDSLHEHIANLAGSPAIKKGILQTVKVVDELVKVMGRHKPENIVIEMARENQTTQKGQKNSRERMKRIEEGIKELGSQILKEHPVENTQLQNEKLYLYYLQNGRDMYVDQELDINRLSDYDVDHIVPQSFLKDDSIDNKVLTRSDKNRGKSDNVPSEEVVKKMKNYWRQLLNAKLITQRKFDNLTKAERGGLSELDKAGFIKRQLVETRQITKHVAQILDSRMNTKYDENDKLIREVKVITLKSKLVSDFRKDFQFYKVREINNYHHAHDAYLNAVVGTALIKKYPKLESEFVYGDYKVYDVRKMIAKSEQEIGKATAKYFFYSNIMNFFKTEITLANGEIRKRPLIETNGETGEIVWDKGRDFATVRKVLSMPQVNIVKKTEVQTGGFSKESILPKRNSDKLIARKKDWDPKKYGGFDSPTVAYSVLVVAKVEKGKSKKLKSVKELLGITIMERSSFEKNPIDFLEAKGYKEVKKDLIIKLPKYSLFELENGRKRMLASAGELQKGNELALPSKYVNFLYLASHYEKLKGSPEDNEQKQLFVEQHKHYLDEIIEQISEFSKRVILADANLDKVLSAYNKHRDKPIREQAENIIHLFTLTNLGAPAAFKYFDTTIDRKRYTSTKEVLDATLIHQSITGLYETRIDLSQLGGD

Sequence “GAGGCTCTCACATCGGTAACGGTGTGAGAGCCTC [Tetra]” gave a dissociation constant (Kd) of 8.79 µM.

For orientation: Kd means a measure of binding affinity in units of concentration. A low value points to a tighter complex.

For the origin of these results see patent US20200255836.
